Our source for the Km, kcat and kcat/Km values is PMC10415118.

What is called Km is the concentration of substrate that gives half-maximal velocity. Broadly, the kcat is the maximal rate divided by the concentration of active sites. For orientation: kcat/Km means the second-order rate constant that governs catalysis at low substrate concentration.

What all share (assay): purified protein
Substrate in series [1]: Nc1ccn([C@H]2C[C@H](O)[C@@H](CO)O2)c(=O)n1
The note with it: 30 °C, dC 0.05-5 mM.

Substrate in series [2]: Nc1ccn([C@@H]2O[C@H](CO)[C@@H](O)[C@H]2O)c(=O)n1
The note with it: 30 °C, C 0.1-10 mM.

Substrate in series [3]: Cc1cn([C@@H]2O[C@H](CO)[C@@H](O)[C@H]2O)c(=O)nc1N
Particulars: 30 °C, 5mC 1-200 mM.

Substrate in series [4]: Cc1cn([C@H]2C[C@H](O)[C@@H](CO)O2)c(=O)nc1N
Particulars: 30 °C, 5mdC 1-100 mM.

Substrate in series [5]: CO[C@@H]1[C@H](O)[C@@H](CO)O[C@H]1n1ccc(N)nc1=O
The note with it: 30 °C, 2OmC 1-200 mM.

B1: CDA (AtCDA; CYTIDINE DEAMINASE; CDA-Strep) (Arabidopsis thaliana) (protein)
chain: MDKPSFVIQSKEAESAAKQLGVSVIQLLPSLVKPAQSYARTPISKFNVAVVGLGSSGRIFLGVNVEFPNLPLHHSIHAEQFLVTNLTLNGERHLNFFAVSAAPCGHCRQFLQEIRDAPEIKILITDPNNSADSDSAADSDGFLRLGSFLPHRFGPDDLLGKDHPLLLESHDNHLKISDLDSICNGNTDSSADLKQTALAAANRSYAPYSLCPSGVSLVDCDGKVYRGWYMESAAYNPSMGPVQAALVDYVANGGGGGYERIVGAVLVEKEDAVVRQEHTARLLLETISPKCEFKVFHCYEA
Consider B1, for which the Michaelis-Menten constant (Km) in “purified protein [1]” is 0.28 ± 0.05 mM; in the series “purified protein [2]”, 0.82 ± 0.15 mM; in the series “purified protein [3]”, 8.05 ± 0.96 mM; in “purified protein [4]” it was 3.92 ± 0.61 mM; in the series “purified protein [5]” it was 8.34 ± 1.12 mM. In addition, the kcat in the series “purified protein [1]” turned out to be 18.1 ± 0.66 s⁻¹; in “purified protein [2]”, 29.4 ± 1.65 s⁻¹; in the series “purified protein [3]” it was 35.4 ± 1.04 s⁻¹; in the series “purified protein [4]” it was 54.1 ± 1.68 s⁻¹; in the series “purified protein [5]” it was 35.5 ± 1.12 s⁻¹. The kcat/Km in “purified protein [1]” amounted to 64800 M⁻¹ s⁻¹; in “purified protein [2]” it was 35900 M⁻¹ s⁻¹; in the series “purified protein [3]”, 4400 M⁻¹ s⁻¹; in the series “purified protein [4]”, 13800 M⁻¹ s⁻¹; in “purified protein [5]” it was 4300 M⁻¹ s⁻¹.
